# Data reported in patent US20240376221A1.
# Positions count from the first letter of the chain named.
# B1: IgG1-CD134-ABBV368 (antibody, INN chains, looked up, V domains shown)
# VH: EVQLVESGGGLVQPGGSLRLSCAASGFTFSRYGMSWVRQAPGKGLELVATINSNGGRTYYPDSVKGRFTISRDNAKNSLYLQMNSLRAEDTAVYYCAREGITTAYAMDYWGQGTTVTVSS
# VL: DIVMTQSPDSLAVSLGERATINCKASQSVDYDGDSYMHWYQQKPGQPPKLLIYAASILESGVPDRFSGSGSGTDFTLTISSLQAEDVAVYYCQQSNEDPRTFGGGTKVEIK
# modifications: IgG1
# B2: IgG1-CD134-GBR830 (antibody, INN chains, looked up, V domains shown)
# VH: QVTLKESGPALVKPTQTLTLTCSFSGFSLSTSGMGVGWIRQPPGKALEWIAHIWWDDDKYYNTALKTRLTISKDTSKNQVVLTMTNMDPVDTATYYCARIDWDGFAYWGQGTLVTVSS
# VL: EIVLTQSPATLSLSPGERATLSCRASSSVSYMHWYQQKPGQAPRPWIYATSNRATGIPARFSGSGSGTDYTLTISSLEPEDFAVYYCQQWSSNPWTFGQGTKVEIK
# modifications: IgG1
# B3: IgG1-CD134-RG7888 (antibody, INN chains, looked up, V domains shown)
# VH: EVQLVQSGAEVKKPGASVKVSCKASGYTFTDSYMSWVRQAPGQGLEWIGDMYPDNGDSSYNQKFRERVTITRDTSTSTAYLELSSLRSEDTAVYYCVLAPRWYFSVWGQGTLVTVSS
# VL: DIQMTQSPSSLSASVGDRVTITCRASQDISNYLNWYQQKPGKAPKLLIYYTSRLRSGVPSRFSGSGSGTDFTLTISSLQPEDFATYYCQQGHTLPPTFGQGTKVEIK
# modifications: IgG1
# B4: IgG1-CD134-MEDI0562 (antibody, INN chains, looked up, V domains shown)
# VH: QVQLQESGPGLVKPSQTLSLTCAVYGGSFSSGYWNWIRKHPGKGLEYIGYISYNGITYHNPSLKSRITINRDTSKNQYSLQLNSVTPEDTAVYYCARYKYDYDGGHAMDYWGQGTLVTVSS
# VL: B3 VL with R53K, R55H, F71Y, H92S, T93A, P96W
# modifications: IgG1
# Biological target: recombinant human OX40 (Acro Biosystems, cat. no. OXO-H5224) (human) (UniProt P43489)
# Sequence (P43489 29-216 limits assumed): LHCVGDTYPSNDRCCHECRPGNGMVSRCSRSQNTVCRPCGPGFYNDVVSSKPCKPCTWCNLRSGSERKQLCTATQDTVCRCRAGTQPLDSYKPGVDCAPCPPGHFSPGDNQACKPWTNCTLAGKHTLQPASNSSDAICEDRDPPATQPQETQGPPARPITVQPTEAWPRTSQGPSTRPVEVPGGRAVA
# Assay: BLI cross-block; competitor (immobilized 1st Ab): IgG1-CD134-A4453
row,Binder,corrected association response [nm]
1,B1,0.29
2,B2,0.28
3,B3,0.47
4,B4,0.41

# Biological target: human OX40, cell surface-expressed (human) (UniProt P43489)
# Sequence (P43489 29-277): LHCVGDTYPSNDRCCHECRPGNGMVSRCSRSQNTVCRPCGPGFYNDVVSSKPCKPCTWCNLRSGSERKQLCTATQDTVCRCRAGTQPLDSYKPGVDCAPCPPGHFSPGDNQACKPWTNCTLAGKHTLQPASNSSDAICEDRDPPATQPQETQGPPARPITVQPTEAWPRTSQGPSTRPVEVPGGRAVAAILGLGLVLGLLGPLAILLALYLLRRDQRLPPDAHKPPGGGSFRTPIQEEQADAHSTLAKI
# Assay: flow cytometry, activated CD4+ T cells, donor 1
row,Binder,EC50 [µg/mL]
1,B3,0.0453

# Biological target: human OX40 with mouse CRD2 (human with mouse CRD2) (UniProt P43489)
# Sequence (P43489 other isoform, or with tags, fused parts or gaps limits assumed): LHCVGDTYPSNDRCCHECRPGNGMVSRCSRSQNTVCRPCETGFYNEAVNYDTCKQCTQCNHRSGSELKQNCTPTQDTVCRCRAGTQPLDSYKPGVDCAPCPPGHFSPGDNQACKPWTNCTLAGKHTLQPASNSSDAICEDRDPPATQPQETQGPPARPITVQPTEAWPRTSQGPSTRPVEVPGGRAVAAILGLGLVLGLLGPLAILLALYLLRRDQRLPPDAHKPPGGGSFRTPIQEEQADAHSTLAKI
# Assay: flow cytometry, ExpiCHO-S cells with human OX40 carrying mouse CRD2
row,Binder,EC50 (read off the curve) [µg/mL]
1,B3,0.01
2,B4,0.06

# Biological target: recombinant human OX40 (Acro Biosystems, cat. no. OXO-H5224) (human) (UniProt P43489)
# Assay: BLI cross-block; competitor (immobilized 1st Ab): IgG1-CD134-007
row,Binder,corrected association response [nm]
1,B1,0
2,B2,0.07
3,B3,0.47
4,B4,1.14

# Biological target: recombinant human OX40 (Acro Biosystems, cat. no. OXO-H5224) (human) (UniProt P43489)
# Assay: BLI cross-block; competitor (immobilized 1st Ab): IgG1-CD134-IBI101
row,Binder,corrected association response [nm]
1,B1,0.01
2,B2,0.02
3,B3,0.23
4,B4,0.28

# Biological target: recombinant human OX40 (Acro Biosystems, cat. no. OXO-H5224) (human) (UniProt P43489)
# Assay: BLI cross-block; competitor (immobilized 1st Ab): IgG1-CD134-Hu106
row,Binder,corrected association response [nm]
1,B1,0
2,B2,0.02
3,B3,0.1
4,B4,0.69

# Biological target: recombinant human OX40 (Acro Biosystems, cat. no. OXO-H5224) (human) (UniProt P43489)
# Assay: BLI cross-block; competitor (immobilized 1st Ab): IgG1-CD134-003-HC6LC2-RR
row,Binder,corrected association response [nm]
1,B1,1.68
2,B2,1.08
3,B3,1.38
4,B4,1.73

# Biological target: human OX40, cell surface-expressed (human) (UniProt P43489)
# Assay: flow cytometry, activated CD8+ T cells, donor 2
row,Binder,EC50 [µg/mL]
1,B3,0.0332

# Biological target: human OX40 with mouse CRD1 (human with mouse CRD1) (UniProt P43489)
# Sequence (P43489 other isoform, or with tags, fused parts or gaps limits assumed): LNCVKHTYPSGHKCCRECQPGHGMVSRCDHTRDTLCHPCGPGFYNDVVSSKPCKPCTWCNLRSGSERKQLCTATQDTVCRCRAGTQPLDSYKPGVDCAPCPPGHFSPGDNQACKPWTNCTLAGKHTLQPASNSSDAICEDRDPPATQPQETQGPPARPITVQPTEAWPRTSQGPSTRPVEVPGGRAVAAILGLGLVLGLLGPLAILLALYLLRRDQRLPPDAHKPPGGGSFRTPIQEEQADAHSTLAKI
# Assay: flow cytometry, ExpiCHO-S cells with human OX40 carrying mouse CRD1
row,Binder,EC50 (read off the curve) [µg/mL]
1,B1,0.005
2,B2,0.06
3,B3,0.02
4,B4,0.07

# Biological target: human OX40, cell surface-expressed (human) (UniProt P43489)
# Assay: flow cytometry, activated CD8+ T cells, donor 1
row,Binder,EC50 [µg/mL]
1,B3,0.0627

# Biological target: human OX40, cell surface-expressed (human) (UniProt P43489)
# Assay: flow cytometry, activated CD8+ T cells, donor 3
row,Binder,EC50 [µg/mL]
1,B3,0.0393

# Biological target: recombinant human OX40 (Acro Biosystems, cat. no. OXO-H5224) (human) (UniProt P43489)
# Assay: BLI cross-block; competitor (immobilized 1st Ab): IgG1-CD134-RG7888
row,Binder,corrected association response [nm]
1,B1,0.02
2,B2,0.61
3,B3,0.02
4,B4,0

# Biological target: recombinant human OX40 (Acro Biosystems, cat. no. OXO-H5224) (human) (UniProt P43489)
# Assay: BLI, Ab on AHC sensor, OX40 analyte
Binder,Kd [nM],koff [s⁻¹],kon [M⁻¹ s⁻¹]
B1,32,0.017,510000
B2,67,0.0077,120000
B3,0.23,8.4e-05,360000
B4,15,0.0022,150000

# Biological target: recombinant cynomolgus monkey OX40 (Acro Biosystems, cat. no. OXO-C5220) (cynomolgus monkey)
# Sequence (P43489 other isoform, or with tags, fused parts or gaps limits assumed): as the sequence (P43489 29-216 limits assumed) above, with H16Q, S29N, S50A, P55A, L70P, A145P, I159T, G173R, G183R, R185P counted along it
# Assay: BLI, Ab on AHC sensor, OX40 analyte
Binder,Kd [nM],koff [s⁻¹],kon [M⁻¹ s⁻¹]
B1,82,0.019,230000
B3,0.61,0.00014,240000
B4,17,0.0018,110000

# Biological target: cynomolgus monkey OX40, cell surface-expressed (cynomolgus monkey)
# Sequence (P43489 other isoform, or with tags, fused parts or gaps limits assumed): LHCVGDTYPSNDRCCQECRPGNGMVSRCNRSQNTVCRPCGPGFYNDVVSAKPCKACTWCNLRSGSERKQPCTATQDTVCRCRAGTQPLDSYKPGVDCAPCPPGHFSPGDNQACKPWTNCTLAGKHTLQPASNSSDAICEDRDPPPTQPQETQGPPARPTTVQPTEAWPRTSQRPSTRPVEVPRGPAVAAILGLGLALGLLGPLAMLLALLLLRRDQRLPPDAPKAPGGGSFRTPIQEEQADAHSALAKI
# Assay: flow cytometry, HEK293F cells with cynomolgus monkey OX40
row,Binder,EC50 (read off the curve) [µg/mL]
1,B1,0.05
2,B3,0.05
3,B4,0.1

# Biological target: recombinant human OX40 (Acro Biosystems, cat. no. OXO-H5224) (human) (UniProt P43489)
# Assay: BLI cross-block; competitor (immobilized 1st Ab): IgG1-CD134-012
row,Binder,corrected association response [nm]
1,B1,0.87
2,B2,0.84
3,B3,0.54
4,B4,0.82

# Biological target: human OX40, cell surface-expressed (human) (UniProt P43489)
# Assay: flow cytometry, activated CD4+ T cells, mean of 3 donors
row,Binder,EC50 [µg/mL]
1,B3,0.0354

# Biological target: recombinant human OX40 (Acro Biosystems, cat. no. OXO-H5224) (human) (UniProt P43489)
# Assay: BLI cross-block; competitor (immobilized 1st Ab): IgG1-CD134-49B4-RRE
row,Binder,corrected association response [nm]
1,B1,0
2,B2,0
3,B3,0.02
4,B4,0.15

# Biological target: human OX40 with mouse CRD4 (human with mouse CRD4) (UniProt P43489)
# Sequence (P43489 other isoform, or with tags, fused parts or gaps limits assumed): as the sequence (P43489 29-277) above, with D109N, A122S, H125Q, L127R, Q128H, N132D, S134L, I137V counted along it
# Assay: flow cytometry, ExpiCHO-S cells with human OX40 carrying mouse CRD4
row,Binder,EC50 (read off the curve) [µg/mL]
1,B1,0.005
2,B2,0.06
3,B3,0.01
4,B4,0.06

# Biological target: human OX40 with mouse CRD3 (human with mouse CRD3) (UniProt P43489)
# Sequence (P43489 other isoform, or with tags, fused parts or gaps limits assumed): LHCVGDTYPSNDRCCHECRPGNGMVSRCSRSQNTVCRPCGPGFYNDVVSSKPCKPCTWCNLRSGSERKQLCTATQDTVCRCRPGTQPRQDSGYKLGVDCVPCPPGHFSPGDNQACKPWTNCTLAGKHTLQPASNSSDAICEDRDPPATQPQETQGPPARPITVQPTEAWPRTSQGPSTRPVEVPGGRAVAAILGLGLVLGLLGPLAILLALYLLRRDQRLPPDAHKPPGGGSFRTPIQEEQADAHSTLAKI
# Assay: flow cytometry, ExpiCHO-S cells with human OX40 carrying mouse CRD3
row,Binder,EC50 (read off the curve) [µg/mL]
1,B2,0.06

# Biological target: recombinant human OX40 (Acro Biosystems, cat. no. OXO-H5224) (human) (UniProt P43489)
# Assay: BLI cross-block; competitor (immobilized 1st Ab): IgG1-CD134-INCAGN1949
row,Binder,corrected association response [nm]
1,B1,0.01
2,B2,0.01
3,B3,0.02
4,B4,0

# Biological target: recombinant human OX40 (Acro Biosystems, cat. no. OXO-H5224) (human) (UniProt P43489)
# Assay: BLI cross-block; competitor (immobilized 1st Ab): IgG1-CD134-GBR830
row,Binder,corrected association response [nm]
1,B1,0.01
2,B2,0.01
3,B3,0.26
4,B4,0.32

# Biological target: recombinant human OX40 (Acro Biosystems, cat. no. OXO-H5224) (human) (UniProt P43489)
# Assay: BLI cross-block; competitor (immobilized 1st Ab): IgG1-CD134-11D4
row,Binder,corrected association response [nm]
1,B1,0.13
2,B2,0.13
3,B3,0.11
4,B4,0.14

# Biological target: recombinant human OX40 (Acro Biosystems, cat. no. OXO-H5224) (human) (UniProt P43489)
# Assay: BLI cross-block; competitor (immobilized 1st Ab): IgG1-CD134-ABBV368
row,Binder,corrected association response [nm]
1,B1,-0.04
2,B2,-0.01
3,B3,0.01
4,B4,-0.02

# Biological target: recombinant human OX40 (Acro Biosystems, cat. no. OXO-H5224) (human) (UniProt P43489)
# Assay: BLI cross-block; competitor (immobilized 1st Ab): IgG1-CD134-003
row,Binder,corrected association response [nm]
1,B1,1.27
2,B2,0.97
3,B3,0.66
4,B4,1.39

# Biological target: recombinant human OX40 (Acro Biosystems, cat. no. OXO-H5224) (human) (UniProt P43489)
# Assay: BLI cross-block; competitor (immobilized 1st Ab): IgG1-CD134-SF2
row,Binder,corrected association response [nm]
1,B1,0.04
2,B2,0.19
3,B3,0.01
4,B4,0.01

# Biological target: recombinant human OX40 (Acro Biosystems, cat. no. OXO-H5224) (human) (UniProt P43489)
# Assay: BLI cross-block; competitor (immobilized 1st Ab): IgG1-CD134-MEDI0562
row,Binder,corrected association response [nm]
1,B1,-0.01
2,B2,0.33
3,B3,0.02
4,B4,0

# Biological target: human OX40, cell surface-expressed (human) (UniProt P43489)
# Assay: flow cytometry, ExpiCHO-S cells with human OX40
row,Binder,EC50 (read off the curve) [µg/mL]
1,B1,0.005
2,B2,0.05
3,B3,0.007
4,B4,0.07

# Biological target: recombinant human OX40 (Acro Biosystems, cat. no. OXO-H5224) (human) (UniProt P43489)
# Assay: BLI cross-block; competitor (immobilized 1st Ab): IgG1-CD134-h3C8
row,Binder,corrected association response [nm]
1,B1,-0.03
2,B2,-0.02
3,B3,0.41
4,B4,0.54

# Biological target: human OX40, cell surface-expressed (human) (UniProt P43489)
# Assay: flow cytometry, activated CD8+ T cells, mean of 3 donors
row,Binder,EC50 [µg/mL]
1,B3,0.0451

# Biological target: human OX40, cell surface-expressed (human) (UniProt P43489)
# Assay: flow cytometry, activated CD4+ T cells, donor 2
row,Binder,EC50 [µg/mL]
1,B3,0.0292

# Biological target: human OX40, cell surface-expressed (human) (UniProt P43489)
# Assay: flow cytometry, activated CD4+ T cells, donor 3
row,Binder,EC50 [µg/mL]
1,B3,0.0316

# Biological target: human OX40, cell surface-expressed (human) (UniProt P43489)
# Assay: flow cytometry, HEK293F cells with human OX40
row,Binder,EC50 (read off the curve) [µg/mL]
1,B1,0.05
2,B2,0.06
3,B3,0.05
4,B4,0.06
